# Laboratory results: paper PMC6458997
# T1: AimR (phi3T) (Bacillus phage phi3T, UniProt P0DOE3 1-378)
# T1 sequence: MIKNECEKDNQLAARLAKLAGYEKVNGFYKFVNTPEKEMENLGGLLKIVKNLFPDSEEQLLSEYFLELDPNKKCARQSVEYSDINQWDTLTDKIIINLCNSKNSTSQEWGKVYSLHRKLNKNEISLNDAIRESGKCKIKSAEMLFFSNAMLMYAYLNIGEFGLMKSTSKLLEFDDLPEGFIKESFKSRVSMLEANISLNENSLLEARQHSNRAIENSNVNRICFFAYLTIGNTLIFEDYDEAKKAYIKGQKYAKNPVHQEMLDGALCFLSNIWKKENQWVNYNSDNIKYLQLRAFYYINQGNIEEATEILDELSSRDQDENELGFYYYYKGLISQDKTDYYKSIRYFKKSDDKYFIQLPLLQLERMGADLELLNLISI
# T2: AimR (SPbeta) (Bacillus subtilis phage SPbeta (cloned …, UniProt O31927 1-386))
# T2 sequence: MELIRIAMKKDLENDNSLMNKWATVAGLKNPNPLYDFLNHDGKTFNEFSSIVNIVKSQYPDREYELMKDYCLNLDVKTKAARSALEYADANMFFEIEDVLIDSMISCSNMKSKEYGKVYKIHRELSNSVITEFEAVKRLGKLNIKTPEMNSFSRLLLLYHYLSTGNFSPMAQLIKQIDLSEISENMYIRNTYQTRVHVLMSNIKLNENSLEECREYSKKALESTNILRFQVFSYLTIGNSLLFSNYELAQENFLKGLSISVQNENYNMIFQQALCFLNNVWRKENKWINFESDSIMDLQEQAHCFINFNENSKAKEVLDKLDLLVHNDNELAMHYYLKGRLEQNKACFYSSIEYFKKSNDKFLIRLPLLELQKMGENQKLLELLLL
# How the values were obtained:
# [1] = molecular target: T1, AimR (phi3T); assay: EMSA; EMSA: 50 mM HEPES pH 7.5, 5 mM MgCl2, 75 mM NaCl, 0.5 mM EDTA; 0.4 uM DNA, 4 uM AimR; 10 min at room temperature; 8% PAGE in TBE at 4 C or agarose in TAE at room temperature; conditions: protein: recombinant; tags: N-terminal 6xHis; same purification protocol as SPbeta AimR
# [2] = molecular target: T2, AimR (SPbeta); assay: X-ray crystallography; 2.2 A; 200 mM MgCl2, pH 7.5; AimR:DNA 2:1; EMSA: 50 mM HEPES pH 7.5, 5 mM MgCl2, 75 mM NaCl, 0.5 mM EDTA; 0.4 uM DNA, 4 uM AimR; 10 min at room temperature; 8% PAGE in TBE at 4 C or agarose in TAE at room temperature; conditions: protein: recombinant; tags: N-terminal 6xHis-TEV, cleaved; chain copies: 2
# [3] = molecular target: T2, AimR (SPbeta); assay: EMSA; apo; EMSA: 50 mM HEPES pH 7.5, 5 mM MgCl2, 75 mM NaCl, 0.5 mM EDTA; 0.4 uM DNA, 4 uM AimR; 10 min at room temperature; 8% PAGE in TBE at 4 C or agarose in TAE at room temperature; conditions: protein: recombinant; tags: N-terminal 6xHis-TEV, cleaved; chain copies: 2
binder,measurement,setting,value
phi3T operator 37 bp (dsDNA) DNA 1: ATGTTCCAGAAATTCAAAAATCAAAAAATAAGAACAT DNA 2: ATGTTCTTATTTTTTGATTTTTGAATTTCTGGAACAT,binding result,[1],binds
crystal operator 43 bp (dsDNA) DNA 1: TTGATCACTAGATGTTATTAAAACCTAATATTTAAGTGATGGC DNA 2: GCCATCACTTAAATATTAGGTTTTAATAACATCTAGTGATCAA,binding result,[2],binds
SPbeta operator WT 45 bp (dsDNA) DNA 1: GTTGATCACTAGATGTTATTAAAACCTAATATTTAAGTGATGGCC DNA 2: GGCCATCACTTAAATATTAGGTTTTAATAACATCTAGTGATCAAC,binding result,[3],binds
